# B1: aptamer 228 (10AptR1) (ssDNA)
# DNA: GCAAAGACATCTGGACACGCCACTAAGTGGAGGTGATCTGTACTTCATTTATGAGATCGCGGCGAGGAGAAGGAGACTTAGAGGC
# B2: aptamer 229 (10AptL3) (ssDNA)
# DNA: CATCTCCACCTCCATAACCCACGGACGGGCGTCTAGAGAAGTAGGCTGAAATATCGTGGCGAGAACGAGCTGTGTCCTGAAGAAA
# B3: binary aptamer 229-228 (ligated, 170 nt) (ssDNA)
# DNA: CATCTCCACCTCCATAACCCACGGACGGGCGTCTAGAGAAGTAGGCTGAAATATCGTGGCGAGAACGAGCTGTGTCCTGAAGAAAGCAAAGACATCTGGACACGCCACTAAGTGGAGGTGATCTGTACTTCATTTATGAGATCGCGGCGAGGAGAAGGAGACTTAGAGGC
# How the values were obtained:
# [1] = molecular target: T1, streptavidin (magnetic beads) (UniProt P22629 P22629:25-183); test: pulldown; beads without bFab; conditions: tags: immobilised on magnetic beads; chain copies: 4
# T1 sequence (P22629 25-183, one chain of several): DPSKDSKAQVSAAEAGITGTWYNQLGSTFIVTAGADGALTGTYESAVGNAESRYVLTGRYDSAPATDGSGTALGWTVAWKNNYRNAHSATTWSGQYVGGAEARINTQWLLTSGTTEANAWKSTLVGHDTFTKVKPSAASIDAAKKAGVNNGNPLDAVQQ
# Protocol: Aptamers were incubated with bFab (2.5-fold molar excess), then bound to SAMBs. Supernatants were taken, and the SAMBs washed 3 times. Bound material was eluted with 0.1 M NaOH, and then precipitated, washed, dried, and reconstituted before loading samples on a denaturing acrylamide gel. […] M is a size marker (top band 60 bases; aptamer bands 85 bases).
# To assess binding of 10th-cycle singlet aptamers to the selective agent (the Fab target), direct binding assays were carried out. Here, single-stranded aptamer preparations (self-annealed as usual) were incubated with or without biotinylated Fab fragments in PBSM, followed by adsorption onto streptavidin magnetic beads. After this incubation period, the beads were magnetically separated, and the supernatants retained. After 3 washes of the beads, the bound material was eluted by means of 2×20 second incubations with 100 μl of 0.1 M NaOH, with the eluates immediately precipitated with 0.3 M sodium acetate and 3 volumes of ethanol. Pellets were washed with 70% ethanol, and dried. After reconstitution in 5 μl of TE, 1 μl samples were denatured in formamide and run on 10% urea (denaturing) gels. […]
# [2] = molecular target: T1, streptavidin (magnetic beads); test: pulldown; beads without bFab; conditions: tags: immobilised on magnetic beads; chain copies: 4; remark: listed apart in the source
# Protocol: Pellets were washed with 70% ethanol, and dried. After reconstitution in 5 μl of TE, 1 μl samples were denatured in formamide and run on 10% urea (denaturing) gels. Results of such an experiment with the candidate singlet aptamers 228/10AptR1 (see, FIG. 27 and FIG. 29) and 229/10AptL3 (see, FIG. 29) and a specific arbitrary unselected control Right-aptamer (#136; sequence corresponds to: GCAAAGACATCTGGA […] AAGGAGACTTAGAGGC (SEQ ID NO:6); where underlining indicates the 40-mer aptamer tract; remaining sequences are primer sites) are shown in FIG. 30. The supernatants from the 228/10AptR1 and 229/10AptL3 binding (but not #136) were depleted only in the presence of biotinylated Fab. Moreover, the eluted material from biotinylated Fab on the streptavidin magnetic beads was highly enriched for aptamer bands only for 228/10AptR1 and 229/10AptL3 (see, FIG. 30).
# Despite successful in situ assembly of binary aptamers upon the target to which they were bound (as in Example 1), it could not be assumed that binary aptamers formed in solution would be capable of binding the same targets. This was assessed using the same aptamers as used in direct binding tests (Example 3; 228/10AptR1 and 229/10AptL3), but where the aptamers were initially ligated together by means of the same splint oligonucleotide as used in Example 1. […]
Binder,binding result [1],binding result [2]
B1,no binding,
B2,no binding,
B3,,no binding

# From patent publication US20170335314, “Methods For Using Nucleic Acid Aptamers For Directed Templated Assembly” (TriBiotica LLC, published 2017)
